Results on two molecules are retold here after patent publication US20130040894A1, “INHIBITION OR ACTIVATION OF SERINE/THREONINE ULK3 KINASE ACTIVITY” (TALLINN UNIVERSITY OF TECHNOLOGY, priority 2009, published 2013).

In assay [1] the test system is GLI-dependent firefly luciferase activity in Shh-LIGHT2 cells. The experiment in a line: GLI-dependent luciferase assay in Shh-L2 cells. Type of assay: cell-based, mouse. The settings on record: for enhancement of transcriptional activity of overexpressed GLI1: cotransfected with GLI1, Shh-L2 cells; for enhancement of transcriptional activity of overexpressed GLI2: cotransfected with GLI2, Shh-L2 cells. As to the method: Cells were transfected by the expression constructs or respective empty vectors using Polyethylenimine transfection agent (PEI) (Inbio) and as described in [28]. We used 0.25 μg of cDNA per 1 cm^2 of plate surface area for transfections. After 3 h of transfection HEK293, NIH3T3 and Cos1 cells were propagated in the normal growth medium for 48 h. Prior the further analysis the cells were washed twice with PBS. Post-transfectional Shh-L2 cells were grown in the normal growth medium for 24 h and for additional 24 h in the Light medium containing 0.25% FBS, washed once with PBS, lysed in Passive Lysis Buffer (Promega, Madison Wis., USA) (70 ul per well of 24-well plate format) and subjected to luciferase assay.
Luciferase assay was performed as previously described. Briefly, firefly luciferase activity of 12 μl of the Shh-L2 cells lysate was measured using Luciferase Assay Kit (Promega) and galactosidase activity was quantified using Galacto-LightPlus kit (Tropix, Bedford Mass., USA) according to the manufacturer's instructions. Chemiluminicence was measured using Ascent FL Fluoroscan (Thermo Electron Corporation, Waltham Mass., USA) according to the manufacturer's instructions.
We cotransfected the constructs together with GLI-expressing plasmids (or respective empty vector) into Shh-L2 cells and assessed their effect on GLI-dependent firefly luciferase activity. The obtained data was normalized with β-galactosidase values. […] It was able to stimulate the luciferase activity 3.8 times and enhanced the transcriptional activity of over expressed GLI1 and GLI2 approximately 2 and 3.2 times, respectively. The potency of STK36 in the assay was much lower.
In order to examine if the kinase activity of ULK3 is required for the luciferase reporter activation we tested the supposed kinase-deficient variants of ULK3, ULK3(K44R) and ULK3(K139R) in the same assay. […] We also tested the effect of ULK3 and the mutants on the luciferase reporter when the SHH pathway was activated by cotransfection with pShhN (plasmid expressing biologically active part of SHH).

Assay [2] deals with GFP-tagged GLI2 localization in NIH3T3 cells. Put plainly: Immunofluorescence assay, subcellular localization of GFP-tagged GLI2. The format is cell-based, mouse. To be noted: coexpressed with GFP-tagged GLI2 in NIH3T3 cells. As to the method: NIH3T3 cells were transfected with GLI1GFP and FLAG-tagged expression constructs for ULK3 or ULK3(K139R) in ratio 1:1 on 8-chamber slides (Falcon, BD Biosciences, San Jose Calif., USA). The cells were fixed with 4% paraformaldehyde and washed three times for 5 min with Stain Wash Medium (SWM) (0.5% BSA and 0.01% NaN3 in PBS). Subsequent permeabilization of cells was performed at RT by 10-min incubation in. PBS supplemented with 0.5% Triton X-100. Afterwards, the cells were washed three times for 5 min with SWM, blocked for 30 min in PBS containing 5% bovine serum albumin (BSA), and incubated with mouse monoclonal M2-anti-FLAG antibody (diluted 1:1000 in SWM) for 1 h at RT with gentle agitation. […] GLI1GFP protein localization was assessed in at least 200 FLAG-positive cells under a fluorescent microscope Olympus BX61 with UPLan SApo 40× objective, and the experiment was repeated three times. […]
Next we examined if overexpression of ULK3 kinase influences the subcellular localization of GLI1 and GLI2 proteins. […] Subcellular localization of GLI1 and GLI2 was determined, and average values were calculated from three independent experiments. […] Overexpressed GLI1GFP was detected both in cytoplasm and nucleus (FIG. 3A). […]

Assay [3] has as its system GLI1 mRNA expression in HEK293 cells. Put plainly: Quantitative RT-PCR of endogenous GLI1 mRNA expression. The format is cell-based, human. To be noted: normalized by HPRT; for induction of endogenous GLI1 expression: 72 h; for endogenous GLI1 expression level relative to empty vector: FIG. 5B. As to the method: HEK293 cells were transfected with FLAG-tagged wt ULK3, ULK3(K139R) or respective empty vector in two replicates. After 5 h of incubation one replicate of cells transfected with the vector was induced by SHHC24II. The cells were incubated 24 h and 72 h, washed with PBS. Total RNA was isolated and treated with DNaseI using RNAqueous kit (Ambion) according to manufacture's instructions. cDNA of 2 μg total RNA was synthesised using SuperScript III kit (Ambion). Levels of GLI1 mRNA and mRNA of housekeeping gene HPRT used for normalization were detected in triplicates by quantitative Real-Time PCR. The following GLI1 primers were used for the assay: […]
HEK293 cells were transfected by ULK3 or respective empty vector. Cells transfected with empty vector were induced by 12 nM of SHHC24II and were used as a posititve control. Cells were incubated 24 h and 72 h, and total RNA was isolated. Level of GLI1 expression was measured using QRT-PCR procedure and the obtained data was normalized by expression of housekeeping gene HPRT. Level of GLI1 expression in cells transfected with empty vector was taken as 1.

B1: ULK3: human serine/threonine kinase, 472 amino acids (SEQ ID NO: 1), overexpressed from cloned cDNA or immunopurified FLAG-tagged (protein, listed as Homo sapiens)
chain: MAGPGWGPPRLDGFILTERLGSGTYATVYKAYAKKDTREVVAIKCVAKKSLNKASVENLLTEIEILKGIRHPHIVQLKDFQWDSDNIYLIMEFCAGGDLSRFIHTRRILPEKVARVFMQQLASALQFLHERNISHLDLKPQNILLSSLEKPHLKLADFGFAQHMSPWDEKHVLRGSPLYMAPEMVCQRQYDARVDLWSMGVILYEALFGQPPFASRSFSELEEKIRSNRVIELPLRPLLSRDCRDLLQRLLERDPSRRISFQDFFAHPWVDLEHMPSGESLGRATALVVQAVKKDQEGDSAAALSLYCKALDFFVPALHYEVDAQRKEAIKAKVGQYVSRAEELKAIVSSSNQALLRQGTSARDLLREMARDKPRLLAALEVASAAMAKEEAAGGEQDALDLYQHSLGELLLLLAAEPPGRRRELLHTEVQNLMARAEYLKEQVKMRESRWEADTLDKEGLSESVRSSCTLQ
modifications: PEPTIDE (1)..(472) ULK3
Regarding B1, in assay [1], the “enhancement of transcriptional activity of overexpressed GLI1” value is given as “approximately 2 times” and the “enhancement of transcriptional activity of overexpressed GLI2” value is given as approximately 3.2 times. The “induction of luciferase activity with activated SHH pathway” value in assay [1] (cotransfection with pShhN, Shh-L2 cells) is given as “approximately 4.1 times”. Also, in assay [1] (kinase construct alone, Shh-L2 cells, normalized with β-galactosidase), the “stimulation of GLI-dependent luciferase activity” value stood at 3.8 times. For the same molecule, the “influence on GLI2 subcellular localization” value in assay [2] is reported as “not altered”. In assay [3], the “induction of endogenous GLI1 expression” value is “able to induce” and the “endogenous GLI1 expression level relative to empty vector” value is “approximately 6 times”.

B2: ULK3(K139R): kinase-deficient ULK3 mutant with Lysine at position 139 mutated to Arginine (SEQ ID NO:7) (protein)
chain: MAGPGWGPPRLDGFILTERLGSGTYATVYKAYAKKDTREVVAIKCVAKKSLNKASVENLLTEIEILKGIRHPHIVQLKDFQWDSDNIYLIMEFCAGGDLSRFIHTRRILPEKVARVFMQQLASALQFLHERNISHLDLRPQNILLSSLEKPHLKLADFGFAQHMSPWDEKHVLRGSPLYMAPEMVCQRQYDARVDLWSMGVILYEALFGQPPFASRSFSELEEKIRSNRVIELPLRPLLSRDCRDLLQRLLERDPSRRISFQDFFAHPWVDLEHMPSGESLGRATALVVQAVKKDQEGDSAAALSLYCKALDFFVPALHYEVDAQRKEAIKAKVGQYVSRAEELKAIVSSSNQALLRQGTSARDLLREMARDKPRLLAALEVASAAMAKEEAAGGEQDALDLYQHSLGELLLLLAAEPPGRRRELLHTEVQNLMARAEYLKEQVKMRESRWEADTLDKEGLSESVRSSCTLQ
modifications: MUTAGEN (1)..(472) mutated ULK3 protein ULK3 (K139R)
B2: in assay [1], the “enhancement of transcriptional activity of overexpressed GLI1” value was “neither of the mutants had an effect” and the “enhancement of transcriptional activity of overexpressed GLI2” value is “completely inactive”. Moreover, the “influence on GLI2 subcellular localization” value in assay [2] is “not altered”. Further, in assay [3], the “induction of endogenous GLI1 expression” value was “failed to activate” and the “endogenous GLI1 expression level relative to empty vector” value is recorded as “failed to activate”.
